From patent publication EP3821250B1

What was measured:
[1] = biological target: anti-A2M antibody (MAB) labeled with a donor fluorophore; test: TR-FRET competition against acceptor-labeled A2M; A2M calibrator 200 ug/mL; mean of 4 replicates (FIG. 2G)
[2] = biological target: anti-A2M antibody (MAB) labeled with a donor fluorophore; test: TR-FRET competition against acceptor-labeled A2M; A2M calibrator 500 ug/mL; mean of 4 replicates (FIG. 2G)
[3] = biological target: anti-A2M antibody (MAB) labeled with a donor fluorophore; test: TR-FRET competition against acceptor-labeled A2M; A2M calibrator 1000 ug/mL; mean of 4 replicates (FIG. 2G)
[4] = biological target: anti-A2M antibody (MAB) labeled with a donor fluorophore; test: TR-FRET competition against acceptor-labeled A2M; A2M calibrator 2000 ug/mL; mean of 4 replicates (FIG. 2G)
[5] = biological target: anti-A2M antibody (MAB) labeled with a donor fluorophore; test: TR-FRET competition against acceptor-labeled A2M; A2M calibrator 4000 ug/mL; mean of 4 replicates (FIG. 2G)
[6] = biological target: anti-A2M antibody (MAB) labeled with a donor fluorophore; test: TR-FRET competition against acceptor-labeled A2M; A2M calibrator 0 ug/mL, reference; mean of 4 replicates (FIG. 2G)
[7] = biological target: anti-A2M antibody (MAB) labeled with a donor fluorophore; test: TR-FRET competition against acceptor-labeled A2M in whole blood, singleplex calibrators, 5 min; A2M 200 ug/mL (FIG. 2I)
[8] = biological target: anti-A2M antibody (MAB) labeled with a donor fluorophore; test: TR-FRET competition against acceptor-labeled A2M in whole blood, singleplex calibrators, 5 min; A2M 500 ug/mL (FIG. 2I)
[9] = biological target: anti-A2M antibody (MAB) labeled with a donor fluorophore; test: TR-FRET competition against acceptor-labeled A2M in whole blood, singleplex calibrators, 30 min; A2M 200 ug/mL (FIG. 2I)
[10] = biological target: anti-A2M antibody (MAB) labeled with a donor fluorophore; test: TR-FRET competition against acceptor-labeled A2M in whole blood, singleplex calibrators, 30 min; A2M 500 ug/mL (FIG. 2I)
[11] = biological target: anti-A2M antibody (MAB) labeled with a donor fluorophore; test: TR-FRET competition against acceptor-labeled A2M in whole blood, singleplex calibrators, 5 min; A2M 1000 ug/mL (FIG. 2I)
[12] = biological target: anti-A2M antibody (MAB) labeled with a donor fluorophore; test: TR-FRET competition against acceptor-labeled A2M in whole blood, singleplex calibrators, 5 min; A2M 2000 ug/mL (FIG. 2I)
[13] = biological target: anti-A2M antibody (MAB) labeled with a donor fluorophore; test: TR-FRET competition against acceptor-labeled A2M in whole blood, singleplex calibrators, 5 min; A2M 4000 ug/mL (FIG. 2I)
[14] = biological target: anti-A2M antibody (MAB) labeled with a donor fluorophore; test: TR-FRET competition against acceptor-labeled A2M in whole blood, singleplex calibrators, 30 min; A2M 1000 ug/mL (FIG. 2I)
[15] = biological target: anti-A2M antibody (MAB) labeled with a donor fluorophore; test: TR-FRET competition against acceptor-labeled A2M in whole blood, singleplex calibrators, 30 min; A2M 2000 ug/mL (FIG. 2I)
[16] = biological target: anti-A2M antibody (MAB) labeled with a donor fluorophore; test: TR-FRET competition against acceptor-labeled A2M in whole blood, singleplex calibrators, 30 min; A2M 4000 ug/mL (FIG. 2I)
[17] = biological target: anti-A2M antibody (MAB) labeled with a donor fluorophore; test: TR-FRET competition against acceptor-labeled A2M in whole blood, multiplex calibrators, 5 min; A2M 0 ug/mL, reference (FIG. 2I)
[18] = biological target: anti-A2M antibody (MAB) labeled with a donor fluorophore; test: TR-FRET competition against acceptor-labeled A2M in whole blood, multiplex calibrators, 30 min; A2M 0 ug/mL, reference (FIG. 2I)
[19] = biological target: anti-A2M antibody (MAB) labeled with a donor fluorophore; test: TR-FRET competition against acceptor-labeled A2M in whole blood, singleplex calibrators, 5 min; A2M 0 ug/mL, reference (FIG. 2I)
[20] = biological target: anti-A2M antibody (MAB) labeled with a donor fluorophore; test: TR-FRET competition against acceptor-labeled A2M in whole blood, singleplex calibrators, 30 min; A2M 0 ug/mL, reference (FIG. 2I)
[21] = biological target: anti-A2M antibody (MAB) labeled with a donor fluorophore; test: TR-FRET competition against acceptor-labeled A2M in whole blood, multiplex calibrators (VCAM-1 + A2M), 5 min; A2M 200 ug/mL (FIG. 2I)
[22] = biological target: anti-A2M antibody (MAB) labeled with a donor fluorophore; test: TR-FRET competition against acceptor-labeled A2M in whole blood, multiplex calibrators (VCAM-1 + A2M), 5 min; A2M 500 ug/mL (FIG. 2I)
[23] = biological target: anti-A2M antibody (MAB) labeled with a donor fluorophore; test: TR-FRET competition against acceptor-labeled A2M in whole blood, multiplex calibrators (VCAM-1 + A2M), 30 min; A2M 200 ug/mL (FIG. 2I)
[24] = biological target: anti-A2M antibody (MAB) labeled with a donor fluorophore; test: TR-FRET competition against acceptor-labeled A2M in whole blood, multiplex calibrators (VCAM-1 + A2M), 30 min; A2M 500 ug/mL (FIG. 2I)
[25] = biological target: anti-A2M antibody (MAB) labeled with a donor fluorophore; test: TR-FRET competition against acceptor-labeled A2M in whole blood, multiplex calibrators (VCAM-1 + A2M), 5 min; A2M 1000 ug/mL (FIG. 2I)
[26] = biological target: anti-A2M antibody (MAB) labeled with a donor fluorophore; test: TR-FRET competition against acceptor-labeled A2M in whole blood, multiplex calibrators (VCAM-1 + A2M), 5 min; A2M 2000 ug/mL (FIG. 2I)
[27] = biological target: anti-A2M antibody (MAB) labeled with a donor fluorophore; test: TR-FRET competition against acceptor-labeled A2M in whole blood, multiplex calibrators (VCAM-1 + A2M), 5 min; A2M 4000 ug/mL (FIG. 2I)
[28] = biological target: anti-A2M antibody (MAB) labeled with a donor fluorophore; test: TR-FRET competition against acceptor-labeled A2M in whole blood, multiplex calibrators (VCAM-1 + A2M), 30 min; A2M 1000 ug/mL (FIG. 2I)
[29] = biological target: anti-A2M antibody (MAB) labeled with a donor fluorophore; test: TR-FRET competition against acceptor-labeled A2M in whole blood, multiplex calibrators (VCAM-1 + A2M), 30 min; A2M 2000 ug/mL (FIG. 2I)
[30] = biological target: anti-A2M antibody (MAB) labeled with a donor fluorophore; test: TR-FRET competition against acceptor-labeled A2M in whole blood, multiplex calibrators (VCAM-1 + A2M), 30 min; A2M 4000 ug/mL (FIG. 2I)

F/B Mean [1]: 0.905
F/B Mean [2]: 0.795
F/B Mean [3]: 0.666
F/B Mean [4]: 0.532
F/B Mean [5]: 0.393
F/B Mean [6]: 1
FRET signal relative to zero calibrator (quantity not given) [7]: 0.88
FRET signal relative to zero calibrator (quantity not given) [8]: 0.72
FRET signal relative to zero calibrator (quantity not given) [9]: 0.88
FRET signal relative to zero calibrator (quantity not given) [10]: 0.71
FRET signal relative to zero calibrator (quantity not given) [11]: 0.58
FRET signal relative to zero calibrator (quantity not given) [12]: 0.43
FRET signal relative to zero calibrator (quantity not given) [13]: 0.33
FRET signal relative to zero calibrator (quantity not given) [14]: 0.59
FRET signal relative to zero calibrator (quantity not given) [15]: 0.43
FRET signal relative to zero calibrator (quantity not given) [16]: 0.33
FRET signal relative to zero calibrator (quantity not given) [17]: 1
FRET signal relative to zero calibrator (quantity not given) [18]: 1
FRET signal relative to zero calibrator (quantity not given) [19]: 1
FRET signal relative to zero calibrator (quantity not given) [20]: 1
FRET signal relative to zero calibrator (quantity not given) [21]: 0.83
FRET signal relative to zero calibrator (quantity not given) [22]: 0.71
FRET signal relative to zero calibrator (quantity not given) [23]: 0.87
FRET signal relative to zero calibrator (quantity not given) [24]: 0.74
FRET signal relative to zero calibrator (quantity not given) [25]: 0.58
FRET signal relative to zero calibrator (quantity not given) [26]: 0.45
FRET signal relative to zero calibrator (quantity not given) [27]: 0.34
FRET signal relative to zero calibrator (quantity not given) [28]: 0.56
FRET signal relative to zero calibrator (quantity not given) [29]: 0.45
FRET signal relative to zero calibrator (quantity not given) [30]: 0.33
Substance: A2M (alpha-2-macroglobulin), unlabeled analyte / calibrator
